According to PMC5595146 (Metallomics : integrated biometal science, 2017):

B1: S. pombe Grx4 (WT) (natural protein, UniProt O74790 1-244, looked up)
chain: MSVEITFVEQFQEILQNGKEQIILLNFYAPWAAPCKQMNQVFDQFAKDTKNAVFLKIEAEKFSDIAESFDVNAVPLFVLIHGAKVLARISGANPQKLKAAIDEYIQPLISQISSTNASVETQVNSVQTTNTTSNTSKAPNGLDSELNERLSTLTNAHNVMLFLKGTPSEPACGFSRKLVGLLREQNVQYGFFNILADDSVRQGLKVFSDWPTFPQLYIKGEFVGGLDIVSEMIENGELQEMLPN

Tests used:
[1] = target: the molecule itself; experiment: SEC
[2] = target: T1, S. pombe Php4 (WT), 6xHis-tagged (S. pombe, UniProt O14318 1-295); experiment: SPR
T1 sequence (looked up): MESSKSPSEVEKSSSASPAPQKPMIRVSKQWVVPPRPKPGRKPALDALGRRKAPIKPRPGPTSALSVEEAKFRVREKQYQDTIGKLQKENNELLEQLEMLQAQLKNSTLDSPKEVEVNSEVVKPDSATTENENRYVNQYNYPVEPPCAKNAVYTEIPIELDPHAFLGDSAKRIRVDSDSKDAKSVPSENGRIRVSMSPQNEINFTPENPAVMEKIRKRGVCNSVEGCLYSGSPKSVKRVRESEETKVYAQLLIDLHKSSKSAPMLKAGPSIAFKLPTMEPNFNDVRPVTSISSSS

[3] = target: B1; experiment: CD-monitored titration

Binder | binding result [1] | Kd [2] [µM] | koff [2] [s⁻¹] | kon [2] [M⁻¹ s⁻¹] | binding result [3]
B1 | binds | 34.1 | 0.00219 | 64.3 | –
S. pombe Grx4 (C172A) (natural protein, UniProt O74790 1-244, looked up) MSVEITFVEQFQEILQNGKEQIILLNFYAPWAAPCKQMNQVFDQFAKDTKNAVFLKIEAEKFSDIAESFDVNAVPLFVLIHGAKVLARISGANPQKLKAAIDEYIQPLISQISSTNASVETQVNSVQTTNTTSNTSKAPNGLDSELNERLSTLTNAHNVMLFLKGTPSEPAAGFSRKLVGLLREQNVQYGFFNILADDSVRQGLKVFSDWPTFPQLYIKGEFVGGLDIVSEMIENGELQEMLPN | – | 897 | 0.00916 | 10.2 | –
S. cerevisiae Fra2^Δ1–35 (domain or fragment, UniProt P53082 36-120, looked up) MPVTEQGLRERIESAIPQVYHIIVTDLSYGCGQSFDIVVVSDFFQGKSKLMRSRAVNKAVKEELQEIHAFSCKCYTEEEWSKIVV | – | – | – | – | binds
